Measured values taken from patent publication US20250361314A1 (SHANGHAI HUAOTA BIOPHARMACEUTICAL, published 2025).

B1: 900725 (CD73 parental monoclonal antibody corresponding to 700035) (antibody, human IgG1, kappa, L234A L235A, V domains shown)
VH: QVQLVQSGAEVKKPGASVKLSCKASGYTFTSYWIHWVRQAPGQGLEWIGMIHPNSGSTYYNEKFKGRATLTVDKSTSTAYMELSSLRSEDTAVYYCARYYGSDYEWYFDVWGQGTTVTVSS
VL: DIQMTQSPSSMSASVGDRVTITCKASQNVRTAVVWYQQKPGKAPKALIYLASNRHTGVPDRFSGSGSGTDFTLTISSLQPEDFATYFCLQHWNYPYTFGQGTKLEIKR
B2: 900698 (CD73 parental monoclonal antibody corresponding to 700038) (antibody, human IgG1, kappa, L234A L235A, V domains shown)
VH: QVQLVESGGGLVKPGGSLRLSCAASGFTFSKYAMSWIRQAPGKGLEWVAEISSGGGYINYADSVKGRFTISRDNAKNSLYLQMNSLRAEDTAVYYCARAIYYYGSSYNYYAMDYWGQGTTVTVSS
VL: DIQMTQSPSSLSASVGDRVTITCRASQDVGTAEAWYQQKPGKAPKLLIYWASTRHTGVPSRFSGSGSGTDFTLTISSLQPEDFATYYCQQYSSYPLTFGQGTKLEIKR
B3: 700053 (CD39 nanobody) (VHH)
VHH: QVQLVESGGGLVQPGGSLRLSCAASGSISSIAAMGWYRQAPGKERELVAAITSGGNTNLADSTKGRFTISRDNTKNTVYLQMNSLKPEDTAVYYCNAWGEDDSSWFGTDLCDYWGQGTQVTVSS
notes: In the SPR it was captured on an anti-human antibody capture chip, so the tested construct may carry a human Fc

Experiments:
[1] = biological target: T1, Human CD73 on CHOK1-huCD73-3F4 cells overexpressing CD73 (human, UniProt P21589 27-549); test: cell-based or functional assay
T1 sequence (looked up): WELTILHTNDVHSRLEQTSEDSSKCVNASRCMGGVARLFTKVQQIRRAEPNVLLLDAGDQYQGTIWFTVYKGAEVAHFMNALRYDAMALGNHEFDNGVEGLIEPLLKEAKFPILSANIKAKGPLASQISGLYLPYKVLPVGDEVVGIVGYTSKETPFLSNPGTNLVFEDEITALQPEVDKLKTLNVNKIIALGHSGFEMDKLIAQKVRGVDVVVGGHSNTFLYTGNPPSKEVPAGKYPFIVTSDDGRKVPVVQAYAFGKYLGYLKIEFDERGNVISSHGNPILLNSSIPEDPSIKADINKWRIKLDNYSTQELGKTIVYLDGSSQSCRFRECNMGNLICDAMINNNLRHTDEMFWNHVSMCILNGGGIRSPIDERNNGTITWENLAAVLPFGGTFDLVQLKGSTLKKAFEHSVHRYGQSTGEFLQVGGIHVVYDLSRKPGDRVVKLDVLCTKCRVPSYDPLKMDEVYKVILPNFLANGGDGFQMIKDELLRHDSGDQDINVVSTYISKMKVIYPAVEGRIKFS

Human CD73 antigen = biological target: T2, Human CD73 antigen (human, UniProt P21589 27-547, limits assumed); test: SPR (Biacore 8K), antibody captured on anti-human capture CM5 chip, antigen as analyte, 1:1 model
T2 construct: Antigen used as analyte in SPR; also called NT5E
T2 sequence (looked up): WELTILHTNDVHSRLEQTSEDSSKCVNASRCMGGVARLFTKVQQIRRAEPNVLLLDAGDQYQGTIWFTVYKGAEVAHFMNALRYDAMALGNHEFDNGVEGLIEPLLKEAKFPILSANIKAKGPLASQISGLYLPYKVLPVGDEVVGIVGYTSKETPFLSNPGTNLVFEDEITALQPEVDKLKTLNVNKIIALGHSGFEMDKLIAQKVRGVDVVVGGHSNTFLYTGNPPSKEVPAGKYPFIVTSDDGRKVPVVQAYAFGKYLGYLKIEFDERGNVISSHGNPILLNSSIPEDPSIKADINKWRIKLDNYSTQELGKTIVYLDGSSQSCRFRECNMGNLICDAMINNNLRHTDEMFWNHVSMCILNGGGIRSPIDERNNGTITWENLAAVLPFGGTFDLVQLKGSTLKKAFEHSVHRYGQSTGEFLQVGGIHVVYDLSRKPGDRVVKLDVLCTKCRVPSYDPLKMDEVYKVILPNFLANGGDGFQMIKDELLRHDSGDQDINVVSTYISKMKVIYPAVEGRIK
Protocol: (§1) An Anti-Human Capture-CM5 chip (GE, #BR-1005-30) was prepared using coupling methods of a Human Antibody Capture Kit (GE, #BR-1008-39) and an amino coupling kit (GE, BR-1000-50). The chip was equilibrated at room temperature for 20-30 mins and loaded into a Biacore 8K instrument. The antigen and antibody were diluted to an experimental working concentration using an equilibration buffer. The antigens were diluted with the equilibrium buffer to 50 nM, and then diluted three-fold for seven concentration gradients, and two zero concentrations (i.e., the equilibrium buffer) and one repeat concentration (typically the lowest concentration repeat) were set. Experimental analysis was performed on 10 antigen concentrations (2 zero concentrations, 7 gradient concentrations, and 1 repeated concentration) in a cyclic manner according to an order of antibody, antigen, and regeneration. The antigen injection flow rate was 30 μL/min, the binding time was 120 s, and the dissociation time was 600 s. Following the analysis, the data was analyzed using the corresponding analysis program to confirm that there was no obvious reference binding. Using Kinetics and a 1:1 binding model, the data was fit to obtain the kinetic related parameters Ka, Kd, and KD values of the bispecific antibodies and parental control antibodies.

[2] = biological target: soluble recombinant protein CD73; test: cell-based or functional assay
soluble recombinant protein CD73, sequence (P21589 whole entry): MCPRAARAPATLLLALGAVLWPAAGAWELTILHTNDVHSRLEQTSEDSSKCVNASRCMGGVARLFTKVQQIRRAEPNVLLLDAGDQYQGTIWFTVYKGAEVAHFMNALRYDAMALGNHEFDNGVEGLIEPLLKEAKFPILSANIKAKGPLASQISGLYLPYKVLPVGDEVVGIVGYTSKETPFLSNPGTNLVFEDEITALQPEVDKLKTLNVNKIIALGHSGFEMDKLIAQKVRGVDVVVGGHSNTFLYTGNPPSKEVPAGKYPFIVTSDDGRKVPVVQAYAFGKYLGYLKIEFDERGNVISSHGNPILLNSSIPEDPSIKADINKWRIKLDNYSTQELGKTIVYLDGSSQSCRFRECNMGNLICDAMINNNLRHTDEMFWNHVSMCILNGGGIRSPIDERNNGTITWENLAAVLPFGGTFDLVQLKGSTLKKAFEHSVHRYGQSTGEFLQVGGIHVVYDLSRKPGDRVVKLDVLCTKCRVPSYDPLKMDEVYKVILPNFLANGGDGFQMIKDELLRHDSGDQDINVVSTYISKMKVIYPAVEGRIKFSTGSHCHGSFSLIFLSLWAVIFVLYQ

Human CD39 antigen = biological target: T3, Human CD39 antigen (human, UniProt P49961 38-478); test: SPR (Biacore 8K), antibody captured on anti-human capture CM5 chip, antigen as analyte, 1:1 model
T3 construct: Antigen used as analyte in SPR; also called ENTPD1
T3 sequence (looked up): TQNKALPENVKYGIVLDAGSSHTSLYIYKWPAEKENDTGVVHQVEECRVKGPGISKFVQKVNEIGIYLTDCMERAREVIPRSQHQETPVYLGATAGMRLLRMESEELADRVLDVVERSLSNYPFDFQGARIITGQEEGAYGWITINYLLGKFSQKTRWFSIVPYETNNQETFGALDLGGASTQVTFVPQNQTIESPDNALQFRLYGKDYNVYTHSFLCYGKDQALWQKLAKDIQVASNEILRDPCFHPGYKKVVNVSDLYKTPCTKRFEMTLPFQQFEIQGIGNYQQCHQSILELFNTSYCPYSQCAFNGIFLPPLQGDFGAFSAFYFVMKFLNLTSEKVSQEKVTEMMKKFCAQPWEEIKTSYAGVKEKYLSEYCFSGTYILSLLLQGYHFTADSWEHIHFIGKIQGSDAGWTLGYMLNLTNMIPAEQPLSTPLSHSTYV
Protocol: as §1

[3] = biological target: T4, Human CD39 on CHOK1-huCD39-10B6 cells overexpressing CD39 (human, UniProt P49961 1-510); test: cell-based or functional assay
T4 sequence (looked up): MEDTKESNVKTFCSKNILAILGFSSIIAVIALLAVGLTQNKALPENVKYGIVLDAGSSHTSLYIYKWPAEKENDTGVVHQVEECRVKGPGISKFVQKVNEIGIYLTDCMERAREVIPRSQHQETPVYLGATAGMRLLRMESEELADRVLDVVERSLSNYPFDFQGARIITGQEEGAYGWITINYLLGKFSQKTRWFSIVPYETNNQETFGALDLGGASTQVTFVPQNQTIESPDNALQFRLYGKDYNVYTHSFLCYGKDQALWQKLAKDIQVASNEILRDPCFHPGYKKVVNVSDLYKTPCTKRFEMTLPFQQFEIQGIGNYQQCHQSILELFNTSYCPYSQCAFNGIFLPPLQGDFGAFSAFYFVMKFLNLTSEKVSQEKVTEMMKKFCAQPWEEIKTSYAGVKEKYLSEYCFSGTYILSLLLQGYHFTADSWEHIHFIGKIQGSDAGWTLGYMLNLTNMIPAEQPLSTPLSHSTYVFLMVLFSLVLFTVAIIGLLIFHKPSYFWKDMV

| Binder | EC50 (µg/mL), inhibition of enzyme activity of membrane CD73 on CHOK1-huCD73-3F4 cells (CellTiter Glo) [1] [µg/mL] | Kd (Human CD73 antigen) [nM] | koff (Human CD73 antigen) [s⁻¹] | kon (Human CD73 antigen) [M⁻¹ s⁻¹] | EC50 (µg/mL), inhibition of enzyme activity of soluble CD73 protein (CellTiter Glo) [2] [µg/mL] | Kd (Human CD39 antigen) [nM] | koff (Human CD39 antigen) [s⁻¹] | kon (Human CD39 antigen) [M⁻¹ s⁻¹] | EC50 (µg/mL), inhibition of CD39 ATPase activity on CHOK1-huCD39-10B6 cells (CellTiter Glo) [3] [µg/mL] |
| --- | --- | --- | --- | --- | --- | --- | --- | --- | --- |
| B1 | 0.32 | 0.184 | 0.000182 | 988000 |  |  |  |  |  |
| B2 |  | 0.382 | 0.000215 | 561000 | 1.74 |  |  |  |  |
| B3 |  |  |  |  |  | 0.14 | 0.000102 | 730000 | 0.558 |
